Assay results taken from PMC5873240.

Legend:
Kv7.2-hAB[Δ6L] = assay: NMR solution structure
Kv7.2-hABCD = assay: NMR spectra

stoichiometry N (Kv7.2-hAB[Δ6L])	stoichiometry N (Kv7.2-hABCD)	Substance
1		calmodulin (from UniProt P0DP23 1-149) (natural protein)
	4	Kv7.2-hABCD (domain or fragment)
